Assay results from patent US20160311912A1 (RINAT NEUROSCIENCE, published 2016).
Positions count from the first letter of the chain named. Each block holds one binder with its values, some of them ahead of it.

Legend:
[1] = biological target: T1, glucagon receptor (target of the KD / T½ of Tables 1A, 1B and 2B) (Homo sapiens (Human), UniProt P47871 26-136); test: not stated (column of Table 1A)
T1 construct: not shown: Human Fc carrier (and any linker) of the ECD-Fc fusion

[2] = biological target: human glucagon receptor on stably transfected CHO cells (human, UniProt P47871 26-477); test: cell-based or functional assay
[3] = biological target: T1, glucagon receptor (target of the KD / …); test: not stated; 25° C.
[4] = biological target: T1, glucagon receptor (target of the KD / …); test: not stated; 37° C. (entry printed a second time)
[5] = biological target: T1, glucagon receptor (target of the KD / …); test: not stated; 37° C.
[6] = biological target: T1, glucagon receptor (target of the KD / …); test: not stated (column of Table 1B)

T1 sequence (P47871 26-136 limits assumed): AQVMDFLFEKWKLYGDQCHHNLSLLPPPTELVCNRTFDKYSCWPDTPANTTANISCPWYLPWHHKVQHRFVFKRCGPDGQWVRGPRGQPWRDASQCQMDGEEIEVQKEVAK
human glucagon receptor on stably transfected CHO cells, sequence (P47871 26-477 limits assumed): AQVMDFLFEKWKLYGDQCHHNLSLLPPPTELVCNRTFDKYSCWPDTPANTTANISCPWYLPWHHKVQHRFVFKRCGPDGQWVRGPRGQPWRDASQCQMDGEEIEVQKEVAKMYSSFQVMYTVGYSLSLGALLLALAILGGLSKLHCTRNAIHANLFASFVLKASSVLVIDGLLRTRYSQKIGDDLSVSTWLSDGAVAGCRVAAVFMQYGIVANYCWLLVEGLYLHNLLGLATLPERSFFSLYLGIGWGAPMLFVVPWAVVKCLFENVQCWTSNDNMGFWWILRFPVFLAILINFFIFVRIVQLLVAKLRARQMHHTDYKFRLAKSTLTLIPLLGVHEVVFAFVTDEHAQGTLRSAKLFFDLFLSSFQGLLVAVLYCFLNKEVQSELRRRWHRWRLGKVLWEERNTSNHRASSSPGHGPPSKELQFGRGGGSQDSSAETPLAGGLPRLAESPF

B4: H3-C10 (antibody, V domains shown)
VH: QVQLVQSGAEVKKPGASVKVSCKASGYTFTDFSVHWVRQAPGQGLEWMGWINTETDETSYADDFKGRVTMTRDTSTSTVYMELSSLRSEDTAVYYCVKSLYWSYGPPDYWGQGTTVTVSS
VL: DIQMTQSPSSLSASVGDRVTITCRASQNIRTAVVWYQQKPGKAPKLLIYLATNRHSGVPSRFSGSGSGTDFTFTISSLQPEDIATYYCLQHWTYPFSFGGGTKLEIK
- T½ [3]: 0.0613 h

B5: H2-C8-H3-3 (antibody, V domains shown)
VH: B4 VH with D56R, E57G
VL: B4 VL
- T½ [4]: 12.4 h
- T½ [5]: 12.4 h

B8: H2-A11-H3-2 (antibody, V domains shown)
VH: B4 VH with T55Y, E57F, Y101F
VL: B4 VL
- T½ [5]: 8.53 h

B9: H2-A11 (antibody, V domains shown)
VH: B4 VH with T55Y, E57F, L100R, Y101G
VL: B4 VL
- T½ [3]: 0.438 h

B10: H2-A11-H3-4 (antibody, V domains shown)
VH: B4 VH with T55Y, E57F, L100R, Y101W
VL: B4 VL
- T½ [4]: 6.36 h
- T½ [5]: 6.36 h

B11: H2-E7 (antibody, V domains shown)
VH: B4 VH with I51Y, T53L, L100R, Y101G
VL: B4 VL
- T½ [3]: 0.228 h

B14: H2-C8 (antibody, V domains shown)
VH: B4 VH with D56R, E57G, L100R, Y101G
VL: B4 VL
- T½ [3]: 0.344 h

B15: H2-A11-H3-3 (antibody, V domains shown)
VH: B4 VH with T55Y, E57F
VL: B4 VL
- T½ [5]: 17.2 h

B16: H2-E7-H3-4 (antibody, V domains shown)
VH: B4 VH with I51Y, T53L, L100R, Y101W
VL: B4 VL
- T½ [5]: 7.37 h

B17: H2-C8-H3-2 (antibody, V domains shown)
VH: B4 VH with D56R, E57G, Y101F
VL: B4 VL
- T½ [4]: 6.89 h
- T½ [5]: 6.89 h

B19: H2-E7-H3-2 (antibody, V domains shown)
VH: B4 VH with I51Y, T53L, Y101F
VL: B4 VL
- T½ [5]: 7.94 h

B21: H2-C8-H3-4 (antibody, V domains shown)
VH: B4 VH with D56R, E57G, L100R, Y101W
VL: B4 VL
- T½ [5]: 5.3 h

B22: H2-A8 (antibody, V domains shown)
VH: B4 VH with T55F, E57F, L100R, Y101G
VL: B4 VL
- T½ [3]: 0.346 h

B24: H2-A11-H3-1 (antibody, V domains shown)
VH: B4 VH with T55Y, E57F, K98E
VL: B4 VL
- T½ [5]: 4.19 h

B27: H2-E7-H3-3 (antibody, V domains shown)
VH: B4 VH with I51Y, T53L
VL: B4 VL
- T½ [5]: 14.9 h

Next, values leading:

- Kd [1]: 640 pM
B1: mAb1 (antibody, V domains shown)
VH: QIQLVQSGPELKKPGETVKISCKASGYTFTDFSIHWVKQAPGKGLKWMGWINTETDESTYADDFKGRFAFSLETSASTAYLQINNLKNEDTATYFCVKSRGWTYGPPDYWGQGTTLTVSS
VL: DIVMTQSQKFMSASVGDRVSITCKASQNVRTAVVWFQQKPGQSPNTLIYLASNRHSEVPDRFTGSGSGTDFTLTISNVQSEDLADYFCLQHWTYPFTFASGTKLEIK

- Kd [1]: 10200 pM
B2: mAb4 (antibody, V domains shown)
VH: QVQLVQSGAEVKKPGASVKVSCKASGYTFTSSLIHWVRQAPGQGLEWMGYINPYNDGTKYNEKFKGRVTMTRDTSTSTVYMELSSLRSEDTAVYYCARMDYGNLWYFDVWGQGTLVTVSS
VL: EIVLTQSPATLSLSPGERATLSCRASENIYYSLAWYQQKPGQAPRLLIYNANSLEDGIPARFSGSGSGTDFTLTISSLEPEDFAVYYCKQAYDVPFTFGGGTKVEIK

- IC50 (read off the curve) [2]: ~1 µg/mL
- Kd [1]: 224 pM
B3: anti-glucagon receptor antagonist antibody mAb5 (antibody, V domains shown)
VH: B4 VH with L100R
VL: DIQMTQSPSSLSASVGDRVTITCQASQNIRTAVVWYQQKPGKAPKLLIYLASNRHSGVPSRFSGSGSGTDFTFTISSLQPEDIATYYCLQHWTYPFTFGGGTKVEIKR
notes: Fluorescence-labeled in the yeast display experiment

- T½ [3]: 0.296 h
B6: H2-F11 (antibody, V domains shown)
VH: B4 VH with T55F, E57Y, L100R, Y101G
VL: B4 VL

- T½ [3]: 0.0377 h
B7: H3-H9 (antibody, V domains shown)
VH: B4 VH with L100R, Y101W
VL: B4 VL

- Kd [6]: < 200 pM
B12: FF2-H2WT (antibody, V domains shown)
VH: B4 VH
VL: B4 VL with R24Q, T52S, S97T, L104V

- T½ [3]: 0.04 h
B13: H3-F5 (antibody, V domains shown)
VH: B4 VH with Y101F
VL: B4 VL

- Kd [6]: 171 pM
B18: FF2 (antibody, V domains shown)
VH: B4 VH with T55Y, E57F
VL: B4 VL with R24Q, T52S, S97T, L104V

- Kd [6]: 224 pM
B20: FF2-H2WT H3RY (antibody, V domains shown)
VH: B4 VH with L100R
VL: B4 VL with R24Q, T52S, S97T, L104V

- Kd [6]: 187 pM
B23: FF2-H2RG (antibody, V domains shown)
VH: B4 VH with D56R, E57G
VL: B4 VL with R24Q, T52S, S97T, L104V

- T½ [1]: 5.75 min
B25: mAb2 (antibody, V domains shown)
VH: B4 VH with L100R, Y101G
VL: B4 VL

- T½ [3]: 0.36 h
B26: H2-F10 (antibody, V domains shown)
VH: B4 VH with T53L, T55F, L100R, Y101G
VL: B4 VL

- Kd [6]: < 125 pM
B28: FF2-H3RY (antibody, V domains shown)
VH: B4 VH with T55Y, E57F, L100R
VL: B4 VL with R24Q, T52S, S97T, L104V
